Assay [1] has as its target T1, full-length human TRPML1 (transient receptor potential mucolipin 1) (human), Q9GZU1.
T1 chain: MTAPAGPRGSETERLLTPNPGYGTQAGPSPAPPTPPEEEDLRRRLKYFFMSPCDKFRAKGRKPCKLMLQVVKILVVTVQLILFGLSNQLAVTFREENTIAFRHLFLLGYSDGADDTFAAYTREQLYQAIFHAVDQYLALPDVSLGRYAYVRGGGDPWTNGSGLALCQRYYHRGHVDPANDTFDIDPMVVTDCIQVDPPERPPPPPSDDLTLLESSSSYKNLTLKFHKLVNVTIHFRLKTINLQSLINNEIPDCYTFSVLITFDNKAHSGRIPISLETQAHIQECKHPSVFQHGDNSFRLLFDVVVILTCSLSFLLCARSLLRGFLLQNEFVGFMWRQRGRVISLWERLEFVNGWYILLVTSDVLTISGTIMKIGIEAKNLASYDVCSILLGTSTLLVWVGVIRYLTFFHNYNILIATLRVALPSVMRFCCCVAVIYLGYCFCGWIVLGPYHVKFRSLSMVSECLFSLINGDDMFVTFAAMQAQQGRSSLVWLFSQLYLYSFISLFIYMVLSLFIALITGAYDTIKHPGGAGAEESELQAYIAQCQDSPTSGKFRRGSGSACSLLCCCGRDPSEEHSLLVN
Nature of the assay: cryo-EM structure. To be noted: remark: other sources report otherwise.

The target in assay [2] is T1, full-length human TRPML1 (transient …). Nature of the assay: cryo-EM structure. The settings on record: remark: other sources report otherwise.

B1: full-length human TRPML1 (transient receptor potential mucolipin 1), Q9GZU1 1-580 (natural protein)
chain: T1 chain
Broadly, the stoichiometry N is the number of molecules, sites or subunits per partner or assembly. Take B1: the stoichiometry N in assay [1] and in assay [2] was 4 throughout.

For the origin of these results see article PMC5920536.
